This note sets out measurements from the RNAGym collection of RNA variant scans (doi:10.7554/elife.80360).

B1: HDV Ribozyme (parent)
chain: GGCCGGCAUGGUCCCAGCCUCCUCGCUGGCGCCGGCUGGGCAACAUUCCGAGGGGACCGUCCCCUCGGUAAUGGCGAAUGGGACCCA

The variants in this data set derive from B1. The data set is described as follows: self-cleavage, relative activity (ratio to wild type); higher = more cleavage; co-transcriptional.
Turning to A8U G38C, the self-cleavage is 0.095. C15A U72A: the self-cleavage was determined as 0.107. With C26U G82A, the self-cleavage came to 0.769. With C3A U65G, the self-cleavage was found to be 0.718. As for C18G C86G, the self-cleavage stood at 0.0831.

Regarding G29C G73A, the self-cleavage came out at 0.0707. As to C62U C85G, the self-cleavage was found to be 0.892. In the case of C49U C57U, the self-cleavage turned out to be 1.18.

Regarding U79A A83G, the self-cleavage was 0.375.

For C26A C44U, the self-cleavage was found to be 0.95. Consider U20A C57G, for which the self-cleavage was 0. In the case of U20C A43C it was 0.178; in that of A8G C49U, 0.692; in that of G31U G68U, 0.427. Consider C19U G81A, for which the self-cleavage is 0. Take C3G G39A: the self-cleavage was found to be 0.0594. As to G1C C62U, the self-cleavage amounted to 0.282. For C58U C75U, the self-cleavage was found to be 0.302.

Take G10A G28C: the self-cleavage was determined as 0.0683. In the case of U23G G81A, the self-cleavage turned out to be 0.0426. As to A42U C57G, the self-cleavage came to 0.489. For the variant A8U U79C, the self-cleavage is 0.177. To G74C C75U belongs 0.108. With C7U C22A, the self-cleavage came to 0.261.

As to G11A U20C, the self-cleavage worked out at 0. In the case of C66G C75A it was 0.166; in that of U12G G34U, 0.266. Take G76U C85A: the self-cleavage was determined as 1.05. In the case of G1C C15G, the self-cleavage amounted to 0.166. In the case of C30U, the self-cleavage is 0.746. Turning to G25A C57U, the self-cleavage turned out to be 0.232. For the variant G25A C57A, the self-cleavage was determined as 0.194. Take C26G A51U: the self-cleavage came to 0.95.

Regarding G5C U69A, the self-cleavage was determined as 0.111. For A77U C84A, the self-cleavage came out at 0.291. As to A71G A77U, the self-cleavage came to 0.764. In the case of G31C C58A it was 0.325; in that of G25U C84U, 0.262. On to U37C G55U, for which the self-cleavage was found to be 1.13.

On to U12G G82U, for which the self-cleavage is 0.519. Consider C3A G35A, for which the self-cleavage amounted to 0.859. In the case of C3G U79C it was 0.182. Turning to G17U C36G, the self-cleavage came to 0. In the case of A51G G55A it was 0.972.

Turning to U27G C36A, the self-cleavage came out at 0.0639. As to U23C C63A, the self-cleavage amounted to 0.86. For the variant C30G G59A, the self-cleavage worked out at 0.0692. C15G G54C: the self-cleavage was determined as 0.415. Consider C57G A70C, for which the self-cleavage stood at 0.959. Regarding U46G U65A, the self-cleavage was 0.582. As to G54C G67A, the self-cleavage was determined as 0.819. Take C62A G80C: the self-cleavage was 0.0594.

Take A43C U47C: the self-cleavage turned out to be 0.208. Regarding C14G U79A, the self-cleavage is 0.266. As for G34C A77U, the self-cleavage amounted to 0.125. For U20C C48U, the self-cleavage was found to be 0.0791. Take U20G G81A: the self-cleavage turned out to be 0.108. U23C G38A: the self-cleavage was 0.17.

Regarding C14G G54C, the self-cleavage stood at 0.277. G1C C66U: the self-cleavage stood at 0.208. To C7U G10U belongs 0.374.

Take G31C G34A: the self-cleavage was 0.0963. Take U12G C18A: the self-cleavage came to 0.151. C14A G17A: the self-cleavage is 0. As to C58G G82C, the self-cleavage was 0.302.

For G2U G82A, the self-cleavage is 0.0189. For C21U G59C, the self-cleavage came out at 0.292. For G38A A78U, the self-cleavage was 0.0297. On to A16G G54U, for which the self-cleavage is 0.72. On to C13U G82C, for which the self-cleavage was 0.277.

Take C49G C62A: the self-cleavage amounted to 0.739. In the case of C44G C63A it was 0.491; in that of A45U U72G, 0.755.

C15G C61G: the self-cleavage came out at 0.178. As to G54C C66U, the self-cleavage turned out to be 0.917. Regarding G25C U37G, the self-cleavage was 0.0519. On to G17U, for which the self-cleavage worked out at 0.548.

Take C48U U60G: the self-cleavage was determined as 0.776. G10U C22A: the self-cleavage amounted to 0.0941. In the case of C49G U69C, the self-cleavage turned out to be 0.898.

On to C15G C75A, for which the self-cleavage was found to be 0.

As to C3U G52A, the self-cleavage turned out to be 0.896. In the case of G11C G80A, the self-cleavage was 0.136.

In the case of U9G A43U, the self-cleavage amounted to 0.886. Take U12C A56G: the self-cleavage was found to be 0.623. For C3U C21U, the self-cleavage stood at 0.101. Regarding C13G G17U, the self-cleavage is 0.0426. Turning to C18U C36G, the self-cleavage turned out to be 0.142. With U37A C75G, the self-cleavage came out at 0.0852. To G10U G50A belongs 0.62; to U69G C85A, 1.18. To G34A G67A belongs 0.104; to G50U U60A, 0.87; to G11C C57U, 0.388. In the case of G31A U37G, the self-cleavage was 0.242.

As for G6U C30A, the self-cleavage came out at 0.0791. To U9G U65A belongs 1.27; to C24U G59U, 0.736; to G28A G50C, 0.0978. Regarding C18A C75U, the self-cleavage worked out at 0.0665.

For the variant G5A U27A, the self-cleavage came to 0.504. With C30U C61U, the self-cleavage came out at 0.719. Turning to C32A G76A, the self-cleavage is 0.214.

Consider A45C G50A, for which the self-cleavage turned out to be 0.785. For C7U G59C, the self-cleavage is 0.848. With G10C C41U, the self-cleavage was 0.692. To G53A C64U belongs 0.968; to C30A C33A, 0.0615; to G1U A42C, 0.332.

With C15U G35U, the self-cleavage amounted to 0.252.

On to A43G G55A, for which the self-cleavage came out at 0.566. On to C7G U20G, for which the self-cleavage was 0.145.

Take G5C U79C: the self-cleavage is 0.141.

For the variant C32A C75G, the self-cleavage was found to be 0.285. In the case of A45U C62U it was 0.923. For A16U A51G, the self-cleavage came out at 1.04. On to G29C A71C, for which the self-cleavage stood at 0.0536.

Consider C18A C86G, for which the self-cleavage amounted to 0.185. To U46C G81C belongs 0.302.

Regarding A51G G59A, the self-cleavage is 0.787. For G17U U27A, the self-cleavage was determined as 0.486. In the case of A16C G50A it was 0.525; in that of C24G A77U, 0.111; in that of G11A G17U, 0.251. On to C36U G74U, for which the self-cleavage came to 0.191. Regarding C19U U65C, the self-cleavage came to 0.154. In the case of U27C G59C it was 0.751; in that of C49G G76C, 0.982; in that of C66U C75A, 0.176.

Take G11U U46G: the self-cleavage was found to be 0.285.

Turning to A16U C19G, the self-cleavage was found to be 0. Consider C18A C63A, for which the self-cleavage was determined as 0.0692. On to G39U A78U, for which the self-cleavage was 0.157. In the case of G39U A78G it was 0.198; in that of C30A U46A, 0.147.

For the variant A8U G11A, the self-cleavage stood at 0.151. To G59C A83G belongs 0.917.

For C22U A45C, the self-cleavage amounted to 0.113.

Turning to G1A A16C, the self-cleavage is 0.158. Take C4G G82U: the self-cleavage amounted to 0.0421. On to G40U C48U, for which the self-cleavage is 0.628.

Consider G25C C64A, for which the self-cleavage came out at 0.203.

Consider G68C U69A, for which the self-cleavage was 0.739. On to C7A U37G, for which the self-cleavage was found to be 0.246.

For the variant U9C C44A, the self-cleavage amounted to 0.594.

As for U23A U46G, the self-cleavage is 1.06.

Regarding A43G A56G, the self-cleavage is 0.26. Regarding C33U G67C, the self-cleavage was 0.771. In the case of U20G U60A, the self-cleavage worked out at 0. In the case of C7U C85G, the self-cleavage stood at 0.985. As to U12G G50C, the self-cleavage is 0.727. U65A G73A: the self-cleavage was found to be 0.342. In the case of U23G C62A, the self-cleavage came to 0.712. For the variant C33G G53A, the self-cleavage was 0.0449.

With G53A C85U, the self-cleavage came to 0.872.

Turning to G38A G80A, the self-cleavage was 0.0372.

Take G11A C33G: the self-cleavage amounted to 0.0554. For the variant C36A C85G, the self-cleavage is 0.18.

For the variant G5A U79A, the self-cleavage was 0.192.

Consider C66A A77U, for which the self-cleavage stood at 0.776. In the case of G35U C85U it was 0.623; in that of A8G G53A, 1.04. In the case of G38A C84A it was 0.185; in that of C62G C75A, 0.17; in that of C58G U65G, 1.16.

For G40U C61A, the self-cleavage worked out at 0.632. As to C32U C66G, the self-cleavage worked out at 0.739.
